As usually defined, the EC50 is the concentration that produces a half-maximal response.

Assay [1] has as its target T1, full-length beta-Catenin (Uniprot ID P35222) (Homo sapiens (Human), UniProt P35222 2-781).
T1 construct: the AlphaScreen assay uses a Histidine (Nickel Chelate) detection kit, so a His tag is likely there; also called B-Catenin; bCat
T1 sequence: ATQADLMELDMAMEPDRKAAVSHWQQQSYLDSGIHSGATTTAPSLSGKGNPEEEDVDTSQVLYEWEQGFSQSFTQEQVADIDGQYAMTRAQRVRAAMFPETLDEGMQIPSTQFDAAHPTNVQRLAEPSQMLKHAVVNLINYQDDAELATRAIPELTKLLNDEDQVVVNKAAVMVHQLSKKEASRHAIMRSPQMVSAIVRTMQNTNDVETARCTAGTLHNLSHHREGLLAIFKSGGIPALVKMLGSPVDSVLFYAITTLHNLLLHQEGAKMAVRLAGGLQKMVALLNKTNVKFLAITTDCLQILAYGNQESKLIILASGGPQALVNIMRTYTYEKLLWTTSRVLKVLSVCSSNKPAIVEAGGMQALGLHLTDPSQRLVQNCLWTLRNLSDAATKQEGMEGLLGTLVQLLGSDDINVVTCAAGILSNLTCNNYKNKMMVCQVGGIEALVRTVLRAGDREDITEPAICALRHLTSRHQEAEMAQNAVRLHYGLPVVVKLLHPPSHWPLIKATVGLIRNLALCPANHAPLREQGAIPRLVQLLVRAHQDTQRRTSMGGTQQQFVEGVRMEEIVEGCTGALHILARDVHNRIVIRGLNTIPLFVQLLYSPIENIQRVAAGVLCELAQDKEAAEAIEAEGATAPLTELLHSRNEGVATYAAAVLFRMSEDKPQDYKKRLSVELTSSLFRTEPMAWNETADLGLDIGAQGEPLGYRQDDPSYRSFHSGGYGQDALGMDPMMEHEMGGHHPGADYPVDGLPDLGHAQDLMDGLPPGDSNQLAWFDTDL
Nature of the assay: AlphaScreen competition; full-length beta-catenin with biotin-TCF4(10-53) probe as competitor. How it is done:
(§1) Equal volume of the titrated peptide was added to the plate and incubated for 15 minutes at 20° C. Then 4 uL of donor and 4 uL acceptor beads at 10 ug/mL were added to the plate, for a 16 uL reaction pool and protected from light for 60 minutes at 20° C. prior to read. Reads were performed on a CLARIOstar plate reader (BMG Labtech) in duplicate, and data were fitted to a 1:1 binding model with hill slope using an in-house script. All provided concentrations are final concentrations.
On the technique in general: Bead proximity is the source of the signal in Alpha formats.

Assay [2] concerns the target T2, full-length beta-Catenin (Uniprot ID P35222) (Homo sapiens (Human), UniProt P35222 2-781).
T2 construct: The AlphaScreen assay used a Histidine (Nickel Chelate) detection kit, so a His tag is likely, but no tag is described; also called B-Catenin; bCat
T2 sequence: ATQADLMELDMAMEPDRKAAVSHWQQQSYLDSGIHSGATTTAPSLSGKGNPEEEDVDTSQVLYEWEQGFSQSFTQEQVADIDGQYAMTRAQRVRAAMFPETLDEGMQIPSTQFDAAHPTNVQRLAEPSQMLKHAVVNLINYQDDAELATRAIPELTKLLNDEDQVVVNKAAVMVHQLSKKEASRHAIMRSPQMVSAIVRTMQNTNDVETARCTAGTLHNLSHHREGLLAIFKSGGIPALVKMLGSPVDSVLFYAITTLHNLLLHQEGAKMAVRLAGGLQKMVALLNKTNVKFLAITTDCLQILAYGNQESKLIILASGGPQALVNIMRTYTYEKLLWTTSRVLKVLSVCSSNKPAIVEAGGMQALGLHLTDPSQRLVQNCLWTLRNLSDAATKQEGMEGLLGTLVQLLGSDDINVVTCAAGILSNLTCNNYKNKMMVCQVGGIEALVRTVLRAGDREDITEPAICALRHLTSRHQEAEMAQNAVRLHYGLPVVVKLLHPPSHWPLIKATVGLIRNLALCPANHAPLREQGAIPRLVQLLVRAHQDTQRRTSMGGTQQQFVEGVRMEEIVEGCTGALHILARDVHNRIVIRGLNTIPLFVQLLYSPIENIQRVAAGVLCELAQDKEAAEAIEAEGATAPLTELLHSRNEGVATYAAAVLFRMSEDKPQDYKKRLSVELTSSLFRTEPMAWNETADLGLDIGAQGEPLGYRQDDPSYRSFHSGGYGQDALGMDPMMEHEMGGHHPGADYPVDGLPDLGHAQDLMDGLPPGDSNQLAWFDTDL
Kind of assay: AlphaScreen competition: full-length beta-catenin + biotin-TCF4(10-53) probe, peptide titrated. As to the method:
as §1

Starred links: 1 amine or outer side, 2 acyl side, 3 side chain; linkers in the order of their positions; H or OH if unused. Positions of bridges follow the written chain, without caps; N, C: chain ends. Non-standard residues stand in square brackets, D forms with d. Primed or numbered codes have the meaning given here. B5(16) = 2-amino-2-(pent-4-en-1-yl)hept-6-enoic acid = 2,2-bis(4-pentenyl)glycine (stitching residue), C=CCCCC(CCCC=C)(N[*:1])C(=O)[*:2]; B5(4) = 2,2-bis(4-pentenyl)glycine = 2-amino-2-(pent-4-en-1-yl)hept-6-enoic acid (stitching residue), C=CCCCC(CCCC=C)(N[*:1])C(=O)[*:2]; B5(5) = 2,2-bis(4-pentenyl)glycine, 2-amino-2-(pent-4-en-1-yl)hept-6-enoic acid (stitching residue), C=CCCCC(CCCC=C)(N[*:1])C(=O)[*:2]; PyrS″ = (S)-1-((allyloxy)carbonyl)-3-aminopyrrolidine-3-carboxylic acid (stapling residue), C=CCOC(=O)N1CC[C@@](N[*:1])(C(=O)[*:2])C1; PyrS = (S)-1-((allyloxy)carbonyl)-3-aminopyrrolidine-3-carboxylic acid, C=CCOC(=O)N1CC[C@@](N[*:1])(C(=O)[*:2])C1; 6F1NapA = 2-amino-3-(6-fluoronaphthalen-1-yl)propanoic acid, O=C([C@H](Cc1cccc2cc(F)ccc12)N[*:1])[*:2]; B5 = 2-amino-2-(pent-4-en-1-yl)hept-6-enoic acid, C=CCCCC(CCCC=C)(N[*:1])C(=O)[*:2]; Trp(5-CF3) = N[C@@H](Cc1c[nH]c2ccc(C(F)(F)F)cc12)C(=O)O; H2Trp = 2,3-dihydrotryptophan (indolin-3-yl alanine); Phe(3-CF3) = N[C@@H](Cc1cccc(C(F)(F)F)c1)C(=O)O; Phe(4-CF3) = N[C@@H](Cc1ccc(C(F)(F)F)cc1)C(=O)O; Trp(5-F) = N[C@@H](Cc1c[nH]c2ccc(F)cc12)C(=O)O; αAllylPro = C=CC[C@@]1(C(=O)O)CCCN1; R8 = C=CCCCCCC[C@@](C)(N)C(=O)O; S8 = C=CCCCCCC[C@](C)(N)C(=O)O; Aib = CC(C)(N)C(=O)O

B1: I-161 (peptide)
peptide: Ac-FDA[R8]DDAAFV[PyrS]EWQ-NH2
modifications: staple 4-11; not fully specified; printed as Ac-Phe-Asp-Ala-R8-Asp-Asp-Ala-Ala-Phe-Val-PyrS-Glu-Trp-Gln-NH2
notes: stapled peptide
In turn, B1 gave an EC50 in assay [1] of no less than 10 µM.

B2: I-160 (peptide)
peptide: Ac-[Aib]DA[R8]DEAAFV[PyrS]FW[Aib]-NH2
modifications: staple 4-11; not fully specified; printed as Ac-Aib-Asp-Ala-R8-Asp-Glu-Ala-Ala-Phe-Val-PyrS-Phe-Trp-Aib-NH2
notes: stapled peptide
In assay [1], B2 registered an EC50 of 3.24 µM.

B3: I-149 (peptide)
peptide: DIXDDAAFQXFWH
modifications: not fully specified; as printed: Ac-Asp-Ile-RdN-Asp-Asp-Ala-Ala-Phe-Gln-S7-Phe-Trp-His-NH2; N-terminal acetyl, C-terminal amide; RdN(3), S7(10); staple RdN-S7 by olefin metathesis
notes: stapled peptide
With B3, the EC50 in assay [1] was found to be 1.79 µM. Ac-[αAllylPro]DA[B5(16)]DEAAFV[S8]F[H2Trp]Q-NH2 (staple 1-4, 4-11, stapled peptide) [I-168]: the EC50 in assay [1] stood at 5.64 µM.

B4: I-241 (peptide)
peptide: Ac-[αAllylPro]DA[B5(5)]DDAA[Phe(4-CF3)]V[S8]FWQ-NH2
modifications: staple 1-4, 4-11; not fully specified; printed as Ac-PL3-Asp-Ala-B5-Asp-Asp-Ala-Ala-4F3MeF-Val-S8-Phe-Trp-Gln-NH2
notes: Stapled peptide composition; also called Ac-PL3-Asp-Ala-B5-Asp-Asp-Ala-Ala-4F3MeF-Val-S8-Phe-Trp-Gln-NH2
Consider B4, for which the EC50 in assay [2] was 3.47 µM.

B5: I-248 (peptide)
peptide: Ac-[αAllylPro]DA[B5(4)]DDAAFV[S8][Phe(3-CF3)]WQ-NH2
modifications: staple 1-4, 4-11
notes: Stapled peptide composition; also called Ac-PL3-Asp-Ala-B5-Asp-Asp-Ala-Ala-Phe-Val-S8-3F3MeF-Trp-Gln-NH2
With B5, the EC50 in assay [2] turned out to be 2.83 µM.

B6: I-150 (peptide)
peptide: DIXDDAAFQXFWH
modifications: not fully specified; as printed: Ac-Asp-Ile-RdN-Asp-Asp-Ala-Ala-Phe-Gln-S7-Phe-Trp-His-NH2; N-terminal acetyl, C-terminal amide; RdN(3), S7(10); staple RdN-S7 by olefin metathesis
notes: stapled peptide
In the case of B6, the EC50 in assay [1] amounted to 1.94 µM. Ac-[αAllylPro]DA[B5(4)]DEAAFV[S8]F[6F1NapA]Q-NH2 (staple 1-4, 4-11, stapled peptide composition) [I-142] returned an EC50 in assay [1] of 7.37 µM.

B7: I-252 (peptide)
peptide: Ac-[αAllylPro]DA[B5(4)]DDAAFV[S8][Phe(4-CF3)]WQ-NH2
modifications: staple 1-4, 4-11
notes: Stapled peptide composition; also called Ac-PL3-Asp-Ala-B5-Asp-Asp-Ala-Ala-Phe-Val-S8-4F3MeF-Trp-Gln-NH2
B7: the EC50 in assay [2] was 3.69 µM. Ac-[Aib]DA[R8]DEAAFV[PyrS]FWQ-NH2 (staple 4-11; also: earlier-eluting staple isomer, stapled peptide) [I-157] returned an EC50 in assay [1] of 4.06 µM.

B8: I-162 (peptide)
peptide: Ac-FDA[R8]DDAAFV[PyrS″]EWQ-NH2
modifications: staple 4-11; not fully specified; printed as Ac-Phe-Asp-Ala-R8-Asp-Asp-Ala-Ala-Phe-Val-PyrS-Glu-Trp-Gln-NH2
notes: stapled peptide
Turning to B8, the EC50 in assay [1] was no less than 10 µM. The same measure, in the same setting: the figure for Ac-[αAllylPro]DA[B5]DEAAFV[S8]F[Trp(5-CF3)]Q-NH2 (staple 1-4, 4-11, stapled peptide composition) [I-169] is 9.21 µM.

B9: I-171 (peptide)
peptide: XDAXDEAAFVXFXQ
modifications: not fully specified; as printed: Ac-PL3-Asp-Ala-B5-Asp-Glu-Ala-Ala-Phe-Val-S8-Phe-5CpW-Gln-NH2; N-terminal acetyl, C-terminal amide; PL3(1), B5(4), S8(11), 5CpW(13); staples PL3-B5 and B5-S8 by olefin metathesis
notes: stapled peptide
As for B9, the midpoint of the response in assay [1], the EC50, lay at 2.07 µM. On to Ac-FDA[R8]DDAAFS[PyrS]FWQ-NH2 (staple 4-11, stapled peptide) [I-164], for which a half-maximal response in assay [1] (EC50) required 3.61 µM.

On to Ac-[αAllylPro]DA[B5(4)]DEAAFV[S8]F[Trp(5-F)]Q-NH2 (staple 1-4, 4-11, stapled peptide composition) [I-146], for which the midpoint of the response in assay [1], the EC50, lay at 1.22 µM.

B10: I-249 (peptide)
peptide: Ac-[αAllylPro]DA[B5(4)]DDAAFV[S8][Phe(3-CF3)]WQ-NH2
modifications: staple 1-4, 4-11
notes: as for B5
Turning to B10, the EC50 in assay [2] came out at 2.83 µM.

The values above are taken from patent US20240116985A1 (published 2024).
